Assay results from patent US20160201045A1, “Endo-xylanase and Coding Gene and Use Thereof” (SHANGHAI INSTITUTES FOR BIOLOGICAL SCIENCES CHINESE ACADEMY …, priority 2013, published 2016).

Columns and labels:
Assay type in all cases: biochemical
[1] = Standard enzymatic activity detection (DNS method) on birch xylan; details: substrate 2% (w/w), pH7.0, 50, 10 minutes
Protocol: Enzymatic activity of the endo-1,4-β-xylanase was tested by a DNS method as follows:
10 g NaOH were weighed and dissolved in about 400 ml ddH2O. 10 g dinitrosalicylic acid, 2 g phenol, 0.5 g anhydrous sodium sulfite and 200 g potassium sodium tartrate tetrahydrate were weighed and dissolved in about 300 ml ddH2O. The two solutions were mixed, diluted to 1 liter and preserved in dark.
100 μl DNS were added into each of the above standard samples. The mixtures were subjected to boiled water bath for 5 minutes for developing color. Absorbance value at 540 nm was detected by a microplate reader. Standard sample 1 was a blank control. The absorbance value of the blank control was subtracted from that of each sample and then the standard curve was plotted.
(§1) In a 100 μl reaction system, birch xylan was added to a final concentration of 1% (w/w), and Na2HPO4/NaH2PO4 buffer (pH7.0) was added to a final concentration of 100 mM. A suitable amount of enzyme solution diluted by the abovementioned buffer was added to the reaction system for reaction at 50[…] for 10 minutes. 100 μl DNS were added to stop the reaction. For the control, 100 μl DNS were firstly added to the above reaction system before adding the enzyme solution. The reaction mixtures were subjected to a boiled water bath for 5 minutes to develop color. Absorbance value at 540 nm was detected by a microplate reader. After subtracting the absorbance value of the control from that of the sample, the enzymatic activity unit (U) was calculated based on the standard curve.
Definition of enzymatic activity unit (U): 1U refers to the amount of enzyme required for catalytically hydrolyzing xylan to produce 1 μmol xylose.
Definition of specific activity unit: enzymatic activity of 1 mg protein (U/mg).
Various substrates with a final concentration of 2% (w/w) were treated by a suitable amount of enzymes at pH7.0 and 50[…] for 10 minutes. Enzymatic activity was tested according to the above standard enzymatic activity detection steps. […] No detectable enzymatic activity was found for the other test substrates. […]

[2] = Hydrolysis of Xyl7 on different substrates (DNS method); details: substrate 2% (w/w), pH7.0, 50, 10 minutes
Protocol: as §1
Various substrates with a final concentration of 2% (w/w) were treated by a suitable amount of enzymes at pH7.0 and 50[…] for 10 minutes. Enzymatic activity was tested according to the above standard enzymatic activity detection steps. […] No detectable enzymatic activity was found for the other test substrates. This was consistent to the high substrate specificity of xylanase of the GH11 Family.

[3] = Detection on the optimum temperature
Protocol: as §1
Enzymatic activity was detected according the above standard enzymatic activity detection steps at pH 7.0 and a temperature in the range of 25-80° C. The optimum temperature of Xyl7 was in the range of 50-55° C., with an activity at 50[…] slightly higher than that at 55[…]. Thus, the specific activity value of the enzyme at 50[…] was used as a reference value and its relative activity was defined as 100%. The relative activity of the enzyme at each temperature was a ratio between the specific activity value of the enzyme at each temperature and the reference value.

[4] = Detection on temperature tolerance
Protocol: as §1
The Xyl7 enzyme solution was stored in a buffer having an optimum pH 7.0 at different temperatures (55° C., 50° C., 45° C.) or at 50° C. with addition of 70 mM mercaptoethan for different times (15 min, 30 min, 45 min, 60 min, 75 min). Enzymatic activity was tested according to the above standard enzymatic activity detection steps (enzymatic activity was tested after reacting at pH7.0, 50° C. for 10 minutes). The enzyme solution which was not subjected to heat treatment was used as a control. Its specific activity tested under pH 7.0, 50° C. was used as a reference value and its relative activity was defined as 100%. The relative activity of the treatment group was a ratio between the relative activity value obtained after storing at different temperatures for different times (treatment conditions) and the reference value. […] After storing at these temperatures for 45 min, the enzymatic activity decreased to be less than 50% of the maximum activity.

[5] = pH 7.0, % of the maximum activity

B1: Xyl7: endo-1,4-β-xylanase of 505 amino acids, SEQ ID NO:2, from termite gut metagenome, expressed in E. coli with His tag (protein)
chain: MKKLIALSFIAAFFAPLFAQGPTWTTSTIQAYNGYDYELWNQNNAGTVSMKLTGDNGSGASAVGGTFTATWSNTQNVLFRSGKKWGSSSNQNHTQIGNMSINFAATWSSTDNVKMLGVYGWAYFTSANVPTKQENGTNASFSNQIEYYIIQDRGSYNPASGGTNAKKYGSATIDGIAYDFYVCDRINQPMLTGNGNFKQFFSVPQSASAHRTSGTISVSQHFNKWHELGMKMDGPLYEVAMKVESYTGSGSSNGSATVTKNLLTIGGTTPTPSSNSGGTTSSSSRASSSSRASSSSNAAVQATTCKTPLITYPTSTVPSDPYTACFKYTDDKCYVCKVENEGEFEGNMNTCGSGWVWDGTQIDNNLRDGYWYQEVPCPAGSSSSRSSSSSVAVSSSSRSSSSSVAASSSSRSSSSSASVSSSSEETPIRVLHTIPSKFRVRSLNNGALQIESNADVVLYLYDTKGKMAQKIEAPTGSSIVKLSVPAGIYIVRNVQTKEKLRVMVR
modifications: His tag; Intestinal tract metagenome of termite
- Specific Activity on birch xylan [1]: 4700 ± 57 U/mg
- Specific Activity on barley dextran [2]: 0 U/mg
- Specific Activity on carboxymethyl cellulose sodium [2]: 0 U/mg
- Specific Activity on laminarin [2]: 0 U/mg
- Specific Activity on locust bean gum [2]: 0 U/mg
- Specific Activity on microcrystalline cellulose powder [2]: 0 U/mg
- optimum temperature ([3]; pH 7.0, 25-80° C. tested): 50-55 °C
- retained activity in the range of 30-60° C. ([3]; pH 7.0, % of the highest activity (50)): ≥ 50%
- effect of 70 mM mercaptoethan on loss of activity during storage ([4]; pH 7.0, 50° C., 70 mM mercaptoethan added): decrease rate of the enzymatic activity was further reduced
- activity after storing at 50° C. and 45° C. for 45 min [4, 5]: less than 50%
- activity after storing at 55° C. for 15 min [4, 5]: less than 50%
